Data set [1] concerns the target T1, XPF-ERCC1 nuclease (XE), recombinant (UniProt Q9QZD4 1-917; P07903 1-298).
T1 sequence (looked up) 1: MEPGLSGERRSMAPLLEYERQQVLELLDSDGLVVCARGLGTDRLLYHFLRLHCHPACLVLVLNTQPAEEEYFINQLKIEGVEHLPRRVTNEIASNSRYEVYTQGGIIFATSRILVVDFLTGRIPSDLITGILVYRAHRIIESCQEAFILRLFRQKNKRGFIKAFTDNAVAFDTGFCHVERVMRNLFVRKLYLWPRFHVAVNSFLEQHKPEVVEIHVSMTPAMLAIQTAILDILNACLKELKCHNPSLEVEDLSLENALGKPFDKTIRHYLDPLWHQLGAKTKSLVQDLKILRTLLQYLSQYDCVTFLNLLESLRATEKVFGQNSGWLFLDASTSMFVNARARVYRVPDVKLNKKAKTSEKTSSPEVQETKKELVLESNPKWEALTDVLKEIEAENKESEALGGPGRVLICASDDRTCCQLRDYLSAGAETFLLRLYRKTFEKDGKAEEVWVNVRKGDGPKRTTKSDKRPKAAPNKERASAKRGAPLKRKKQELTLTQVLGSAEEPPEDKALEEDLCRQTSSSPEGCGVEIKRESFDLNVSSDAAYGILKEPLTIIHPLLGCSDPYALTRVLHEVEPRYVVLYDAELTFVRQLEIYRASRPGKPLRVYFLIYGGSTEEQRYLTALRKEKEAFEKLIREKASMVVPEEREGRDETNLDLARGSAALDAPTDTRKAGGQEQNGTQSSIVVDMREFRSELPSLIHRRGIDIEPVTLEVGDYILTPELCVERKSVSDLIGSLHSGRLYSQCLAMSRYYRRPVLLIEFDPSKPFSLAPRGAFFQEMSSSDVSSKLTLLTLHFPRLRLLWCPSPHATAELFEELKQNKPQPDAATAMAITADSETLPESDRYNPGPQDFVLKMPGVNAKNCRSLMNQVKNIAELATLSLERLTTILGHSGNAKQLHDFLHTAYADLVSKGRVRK
T1 sequence (looked up) 2: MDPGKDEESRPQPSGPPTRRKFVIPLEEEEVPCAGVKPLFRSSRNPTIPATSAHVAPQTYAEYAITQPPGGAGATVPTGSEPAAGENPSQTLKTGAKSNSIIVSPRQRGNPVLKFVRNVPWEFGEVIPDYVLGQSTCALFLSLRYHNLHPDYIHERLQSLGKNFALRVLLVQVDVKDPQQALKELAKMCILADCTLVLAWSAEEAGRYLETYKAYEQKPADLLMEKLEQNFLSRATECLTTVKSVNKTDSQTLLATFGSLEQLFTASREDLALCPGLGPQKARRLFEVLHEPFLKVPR
Put plainly: cell-based or functional assay.

The target of data set [2] is T1, XPF-ERCC1 nuclease (XE), recombinant. Nature of the data set: SEC-MALS; light-scattering analysis of the purified SXE complex (Figure S1F). As to conditions: both partners purified.
Data set [3] concerns the molecule itself. Described as above.

One may read the stoichiometry N as a count of units in the complex or per binding partner.

B1: Recombinant mini-SLX4 (1-758) (domain or fragment, mouse, UniProt Q6P1D7 1-758, looked up)
chain: MVPESAPNGNSQPLPSCFTTTGVPSPSKPRVSELVLQRMKQFKRADPERLRHASEESPQKTALGDDVPRSPPEETVGENEYKLDATDSDAAMALALQQEFRREEASSHHDSLEEKGLFFCQMCQKNLSAMNVTRREQHVNRCLDEAEKAQRPASPRIPDCPICGKPFLTTKSRISHLKQCAVRMEVGPQLLLQAVRLQTAQPEVDGSPQVPSFSNNVGGLKRKGVTTKREPRRRKVNKPEAPSEDLLVAMALSRSEVEHCPVVPPLRLENAFSEKIRLGAEKKSRKKRPPVCPPQLVTQDSETTGRQIEDRVAQLLSEEAELSCTPPLLASKISKEELEPAGWRARLPEGKRNFLWELSALTGAWAEESFYTVGLFPPIVSQCPSKEPQLPLELPKQGEPSPRRPPASQSSLPVSHSPKIRLLSSSQRERQALQDLVDLAVEGLSSSPQPGSRGVPTGLDLVPSSLPLTGFVLPCKKTLKKDDSASLSLGLLVTDFGAMVNNPHLSDVQFQLDSGEVLYAHKFVLYARCPLLIQYVSTESFSSEEDGDLTQRALLSDVSSEAAHAFLNYLYMADTDMPPSLVPDLRSLALRFGVSDLVQLCEQVPAVVDLEGEQPEETSEDCESRAETFLELLRSVWVDNEEEVETLLKPELCEEERERVNEAEMEEIYEFAATQRKLLQWGRAADPDGSTNPHGEDGAVSEPSLAGVQSNRQLENTEHMESSGLEKEEALASWEQEGHSTPLQDQCPDWAGKAEAQD
notes: mouse SLX4, residues 1-758; source: insect cells, purified (in complex with XPF-ERCC1, or alone)
Turning to B1, in data set [1], the “incision rate on the interstrand crosslink (ICL) fork substrate, SXE against XE (5 nM enzyme)” value stood at 110 fold; the “nuclease rate on the bubble substrate, SXE against XE (5 nM enzyme)” value turned out to be 3.5 fold; the “nuclease rate on the fork substrate Y11, SXE against XE (5 nM enzyme)” value came out at 16 fold; the “nuclease rate on the long stem-loop substrate, SXE against XE (5 nM enzyme)” value came out at 3.7 fold. Also, in data set [2], the “stoichiometry N” value was determined as 1.

B2: mini-SLX4-XPF-ERCC1 (SXE) complex (complex)
chain 1: MVPESAPNGNSQPLPSCFTTTGVPSPSKPRVSELVLQRMKQFKRADPERLRHASEESPQKTALGDDVPRSPPEETVGENEYKLDATDSDAAMALALQQEFRREEASSHHDSLEEKGLFFCQMCQKNLSAMNVTRREQHVNRCLDEAEKAQRPASPRIPDCPICGKPFLTTKSRISHLKQCAVRMEVGPQLLLQAVRLQTAQPEVDGSPQVPSFSNNVGGLKRKGVTTKREPRRRKVNKPEAPSEDLLVAMALSRSEVEHCPVVPPLRLENAFSEKIRLGAEKKSRKKRPPVCPPQLVTQDSETTGRQIEDRVAQLLSEEAELSCTPPLLASKISKEELEPAGWRARLPEGKRNFLWELSALTGAWAEESFYTVGLFPPIVSQCPSKEPQLPLELPKQGEPSPRRPPASQSSLPVSHSPKIRLLSSSQRERQALQDLVDLAVEGLSSSPQPGSRGVPTGLDLVPSSLPLTGFVLPCKKTLKKDDSASLSLGLLVTDFGAMVNNPHLSDVQFQLDSGEVLYAHKFVLYARCPLLIQYVSTESFSSEEDGDLTQRALLSDVSSEAAHAFLNYLYMADTDMPPSLVPDLRSLALRFGVSDLVQLCEQVPAVVDLEGEQPEETSEDCESRAETFLELLRSVWVDNEEEVETLLKPELCEEERERVNEAEMEEIYEFAATQRKLLQWGRAADPDGSTNPHGEDGAVSEPSLAGVQSNRQLENTEHMESSGLEKEEALASWEQEGHSTPLQDQCPDWAGKAEAQD
chain 2: MEPGLSGERRSMAPLLEYERQQVLELLDSDGLVVCARGLGTDRLLYHFLRLHCHPACLVLVLNTQPAEEEYFINQLKIEGVEHLPRRVTNEIASNSRYEVYTQGGIIFATSRILVVDFLTGRIPSDLITGILVYRAHRIIESCQEAFILRLFRQKNKRGFIKAFTDNAVAFDTGFCHVERVMRNLFVRKLYLWPRFHVAVNSFLEQHKPEVVEIHVSMTPAMLAIQTAILDILNACLKELKCHNPSLEVEDLSLENALGKPFDKTIRHYLDPLWHQLGAKTKSLVQDLKILRTLLQYLSQYDCVTFLNLLESLRATEKVFGQNSGWLFLDASTSMFVNARARVYRVPDVKLNKKAKTSEKTSSPEVQETKKELVLESNPKWEALTDVLKEIEAENKESEALGGPGRVLICASDDRTCCQLRDYLSAGAETFLLRLYRKTFEKDGKAEEVWVNVRKGDGPKRTTKSDKRPKAAPNKERASAKRGAPLKRKKQELTLTQVLGSAEEPPEDKALEEDLCRQTSSSPEGCGVEIKRESFDLNVSSDAAYGILKEPLTIIHPLLGCSDPYALTRVLHEVEPRYVVLYDAELTFVRQLEIYRASRPGKPLRVYFLIYGGSTEEQRYLTALRKEKEAFEKLIREKASMVVPEEREGRDETNLDLARGSAALDAPTDTRKAGGQEQNGTQSSIVVDMREFRSELPSLIHRRGIDIEPVTLEVGDYILTPELCVERKSVSDLIGSLHSGRLYSQCLAMSRYYRRPVLLIEFDPSKPFSLAPRGAFFQEMSSSDVSSKLTLLTLHFPRLRLLWCPSPHATAELFEELKQNKPQPDAATAMAITADSETLPESDRYNPGPQDFVLKMPGVNAKNCRSLMNQVKNIAELATLSLERLTTILGHSGNAKQLHDFLHTAYADLVSKGRVRK
chain 3: MDPGKDEESRPQPSGPPTRRKFVIPLEEEEVPCAGVKPLFRSSRNPTIPATSAHVAPQTYAEYAITQPPGGAGATVPTGSEPAAGENPSQTLKTGAKSNSIIVSPRQRGNPVLKFVRNVPWEFGEVIPDYVLGQSTCALFLSLRYHNLHPDYIHERLQSLGKNFALRVLLVQVDVKDPQQALKELAKMCILADCTLVLAWSAEEAGRYLETYKAYEQKPADLLMEKLEQNFLSRATECLTTVKSVNKTDSQTLLATFGSLEQLFTASREDLALCPGLGPQKARRLFEVLHEPFLKVPR
notes: mouse SLX4, residues 1-758; XPF, wild type; ERCC1; 430 kDa by light scattering; also called WT SXE; source: insect cells, purified; copies: 2 + 2 + 2
With B2, the “stoichiometry N” value in data set [3] was 2.

The record behind these values is publication PMC4017094, “Mouse SLX4 Is a Tumor Suppressor that Stimulates the Activity of the Nuclease XPF-ERCC1 in DNA Crosslink Repair” (Molecular Cell, 2014).
